Data published in the RNAGym collection of RNA variant scans (doi:10.1093/molbev/msab373).

B1: Azoarcus group I ribozyme (parent)
chain: GUGCCUUGCGCCGGGAAACCACGCAAGGGAUGGUGUCAAAUUCGGCGAAACCUAAGCGCCCGCCCGGGCGUAUGGCAACGCCGAGCCAAGCUUCGGCGCCUGCGCCGAUGAAGGUGUAGAGACUAGACGGCACCCACCUAAGGCAAACGCUAUGGUGAAGGCAUAGUCCAGGGAGUGGCGAAAGUCACACAAACCGG

Variants of: B1
Test: reverse-splicing fitness (ratio to wild type); higher = more active; in vitro selection; Mg2+ level not given
In short: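 An in vitro group I ribozyme library with randomized positions was T7-transcribed and gel-purified. In triplicate, 10 pmol RNA in EPPS pH 7.5 was reacted with 50 pmoles of a 30-nt RNA substrate for 1 h at 37 °C across several added MgCl2 levels (1–48 mM), then stopped with EDTA. Products were reverse transcribed from a substrate-complementary primer, PCR-amplified and sequenced (HiSeq 4000). Fitness is a variant's read proportion after selection over that before, normalised to wild type.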
Variant GUGCCUUGCGCCGGGAAACCACGCAAGGGAUGGUGUCAAAUUCGGCGAAACCUAAGCGCCCGCCCGGGCGUAUGGCAACGCUGAGCCAAGCUUCGGCGCCUGCGCCGAUGUAGGUGUAGAGACUAGACGGCACCCACCUAAGGCCAACGUUAUGGUGAAGGCAUAGUCGAGGGAGGGGCGAAAGUCACACAAACCGG [C82U A111U A145C C150U C169G U176G] has a reverse-splicing fitness of 0.00575.
GUGCCUUGCGCCGGGAAACCACGCAAGGGAUGGUGUCAAAUUCGGCGAAACCUAAGCGCCCGCCCGGGCGUAUGGCAACGCUGAGCCAAGCUUCGGCGCCUGCGCCGAUGUAGGUGUAGAGACUAGACGGCACCCACCUAAGGCCAACGUUAUGGUGAAGGCAUAGUCGAGGGAGCGGCGAAAGUCACACAAACCGG [C82U A111U A145C C150U C169G U176C] gave a reverse-splicing fitness of 0.0104.
Variant GUGCCUUGCGCCGGGAAACCACGCAAGGGAUGGUGUCAAAUUCGGCGAAACCUAAGCGCCCGCCCGGGCGUAUGGCAACGCUGAGCCAAGCUUCGGCGCCUGCGCCGAUGUAGGUGUAGAGACUAGACGGCACCCACCUAAGGCCAACGUUAUGGUGAAGGCAUAGUCGAGGGAGAGGCGAAAGUCACACAAACCGG [C82U A111U A145C C150U C169G U176A] has a reverse-splicing fitness of 0.0199.
GUGCCUUGCGCCGGGAAACCACGCAAGGGAUGGUGUCAAAUUCGGCGAAACCUAAGCGCCCGCCCGGGCGUAUGGCAACGCUGAGCCAAGCUUCGGCGCCUGCGCCGAUGUAGGUGUAGAGACUAGACGGCACCCACCUAAGGCCAACGUUAUGGUGAAGGCAUAGUCCAGGGAGCGGCGAAAGUCACACAAACCGG [C82U A111U A145C C150U U176C] showed a reverse-splicing fitness of 0.038.
GUGCCUUGCGCCGGGAAACCACGCAAGGGAUGGUGUCAAAUUCGGCGAAACCUAAGCGCCCGCCCGGGCGUAUGGCAACGCUGAGCCAAGCUUCGGCGCCUGCGCCGAUGUAGGUGUAGAGACUAGACGGCACCCACCUAAGGCCAACGUUAUGGUGAAGGCAUAGUCCAGGGAGGGGCGAAAGUCACACAAACCGG [C82U A111U A145C C150U U176G] showed a reverse-splicing fitness of 0.011.
For GUGCCUUGCGCCGGGAAACCACGCAAGGGAUGGUGUCAAAUUCGGCGAAACCUAAGCGCCCGCCCGGGCGUAUGGCAACGCUGAGCCAAGCUUCGGCGCCUGCGCCGAUGUAGGUGUAGAGACUAGACGGCACCCACCUAAGGCCAACGUUAUGGUGAAGGCAUAGUCCAGGGAGAGGCGAAAGUCACACAAACCGG [C82U A111U A145C C150U U176A], the reverse-splicing fitness was 0.0276.
Variant GUGCCUUGCGCCGGGAAACCACGCAAGGGAUGGUGUCAAAUUCGGCGAAACCUAAGCGCCCGCCCGGGCGUAUGGCAACGCUGAGCCAAGCUUCGGCGCCUGCGCCGAUGUAGGUGUAGAGACUAGACGGCACCCACCUAAGGCCAACGUUAUGGUGAAGGCAUAGUCUAGGGAGAGGCGAAAGUCACACAAACCGG [C82U A111U A145C C150U C169U U176A] has a reverse-splicing fitness of 0.0134.
For GUGCCUUGCGCCGGGAAACCACGCAAGGGAUGGUGUCAAAUUCGGCGAAACCUAAGCGCCCGCCCGGGCGUAUGGCAACGCUGAGCCAAGCUUCGGCGCCUGCGCCGAUGUAGGUGUAGAGACUAGACGGCACCCACCUAAGGCCAACGUUAUGGUGAAGGCAUAGUCUAGGGAGCGGCGAAAGUCACACAAACCGG [C82U A111U A145C C150U C169U U176C], the reverse-splicing fitness was 0.0076.
Variant GUGCCUUGCGCCGGGAAACCACGCAAGGGAUGGUGUCAAAUUCGGCGAAACCUAAGCGCCCGCCCGGGCGUAUGGCAACGCUGAGCCAAGCUUCGGCGCCUGCGCCGAUGUAGGUGUAGAGACUAGACGGCACCCACCUAAGGCCAACGUUAUGGUGAAGGCAUAGUCUAGGGAGGGGCGAAAGUCACACAAACCGG [C82U A111U A145C C150U C169U U176G] has a reverse-splicing fitness of 0.00525.
GUGCCUUGCGCCGGGAAACCACGCAAGGGAUGGUGUCAAAUUCGGCGAAACCUAAGCGCCCGCCCGGGCGUAUGGCAACGCUGAGCCAAGCUUCGGCGCCUGCGCCGAUGUAGGUGUAGAGACUAGACGGCACCCACCUAAGGCCAACGUUAUGGUGAAGGCAUAGUCAAGGGAGGGGCGAAAGUCACACAAACCGG [C82U A111U A145C C150U C169A U176G] showed a reverse-splicing fitness of 0.00651.
GUGCCUUGCGCCGGGAAACCACGCAAGGGAUGGUGUCAAAUUCGGCGAAACCUAAGCGCCCGCCCGGGCGUAUGGCAACGCUGAGCCAAGCUUCGGCGCCUGCGCCGAUGUAGGUGUAGAGACUAGACGGCACCCACCUAAGGCCAACGUUAUGGUGAAGGCAUAGUCAAGGGAGCGGCGAAAGUCACACAAACCGG [C82U A111U A145C C150U C169A U176C] gave a reverse-splicing fitness of 0.00663.
In the case of GUGCCUUGCGCCGGGAAACCACGCAAGGGAUGGUGUCAAAUUCGGCGAAACCUAAGCGCCCGCCCGGGCGUAUGGCAACGCUGAGCCAAGCUUCGGCGCCUGCGCCGAUGUAGGUGUAGAGACUAGACGGCACCCACCUAAGGCCAACGUUAUGGUGAAGGCAUAGUCAAGGGAGAGGCGAAAGUCACACAAACCGG [C82U A111U A145C C150U C169A U176A], the reverse-splicing fitness is reported as 0.0108.
In the case of GUGCCUUGCGCCGGGAAACCACGCAAGGGAUGGUGUCAAAUUCGGCGAAACCUAAGCGCCCGCCCGGGCGUAUGGCAACGCUGAGCCAAGCUUCGGCGCCUGCGCCGAUGUAGGUGUAGAGACUAGACGGCACCCACCUAAGGCCAACGUUAUGGUGAAGGCAUAGUCAAGGGAGUGGCGAAAGUCACACAAACCGG [C82U A111U A145C C150U C169A], the reverse-splicing fitness is reported as 0.00776.
For GUGCCUUGCGCCGGGAAACCACGCAAGGGAUGGUGUCAAAUUCGGCGAAACCUAAGCGCCCGCCCGGGCGUAUGGCAACGCUGAGCCAAGCUUCGGCGCCUGCGCCGAUGUAGGUGUAGAGACUAGACGGCACCCACCUAAGGCCAACGUUAUGGUGAAGGCAUAGUCGAGGGAGUGGCGAAAGUCACACAAACCGG [C82U A111U A145C C150U C169G], the reverse-splicing fitness was 0.00801.
Work on GUGCCUUGCGCCGGGAAACCACGCAAGGGAUGGUGUCAAAUUCGGCGAAACCUAAGCGCCCGCCCGGGCGUAUGGCAACGCUGAGCCAAGCUUCGGCGCCUGCGCCGAUGUAGGUGUAGAGACUAGACGGCACCCACCUAAGGCCAACGUUAUGGUGAAGGCAUAGUCUAGGGAGUGGCGAAAGUCACACAAACCGG [C82U A111U A145C C150U C169U] yielded a reverse-splicing fitness of 0.0089.
